From US20070107085 come the findings set out here.

This series concerns the target T1, Gly-Asp-Asp-Asp-Asp-Lys-β-naphthylamide.
T1 chain: GDDDDK

B1: CBM-enterokinase produced transiently in lettuce and purified on cellulose (protein)
chain: MVATAKYGTPVIDGEIDEIWNTTEEIETKAVAMGSLDKNATAKVRVLWDENYLYVLAIVKDPVLNKDNSNPWEQDSVEIFIDENNHKTGYYEDDDAQFRVNYMNEQTFGTGGSPARFKTAVKLIEGGYIVEAAIKWKTIKPTPNTVIGFNIQVNDANEKGQRVGIISWSDPTNNSWRDPSKFGNLRLIK
For B1, the Enterokinase activity is given as 442,7 cps/min/µg.
